Measurements as given in US20140056960A1, “Methods for Improving Fracture Healing and Bone Formation” (Imperial Innovations Limited, priority 2010, published 2014).
Entries after “also recorded” stand apart in the source; their conditions may differ.

Columns and labels:
tibial fracture = experiment: murine tibial fracture model: callus mineralization (microCT) and histology after local administration at fracture site; type: in vivo, mouse; conditions: exogenous alarmin at fracture site days 0 and 1 (rmHMGB1 20 μL at 50 ng/ml); day 28 microCT
Description: Percentage callus mineralization was determined from the fracture site to 1 mm proximally (mean+/−SEM). FIG. 5. Dose response of exogenous TNF-α in vivo. 20 μL of PBS with rhTNF-α at the corresponding dose was injected at the fracture site at days 0 and 1 in C57BI/6 mice. At day 28, mice were harvested and limbs scanned by microCT in a blinded fashion. Percentage callus mineralization was determined from the fracture site to 1 mm proximally (threshold density of 350 mg/cm^3). * p<0.05, ** p<0.01. FIG. 7A. […] Percentage callus mineralization was determined from the fracture site to 1 mm proximally (mean+/−SEM). FIG. 18. […] C57BI6 mice were subjected to fracture model with addition of 20 μL of rmHMGB1 at 50 ng/ml at the fracture site at days 0 and 1 compared to controls. Addition of exogenous S100A8 or S100A9 or S100A8/9 had no effect, possibly because the fracture environment may already contain optimal amounts of S100 A8 or A9 proteins. All mice were harvested at day 28 and limbs scanned by microCT in a blinded fashion. Percentage callus mineralization was determined from the fracture site to 1 mm proximally (mean+/−SEM). […] Inflammation plays a vital role in early fracture repair^11,12. In murine models, TNF-α, IL-1 and IL-6 are expressed at the fracture site within 24 hours of injury^13,14. Biphasic expression of TNF-α and IL-1β appears to be linked to the initiation of fracture repair and later to endochondral maturation^14,15. In our murine model, callus mineralization at day 28 was enhanced when TNF-α, at a concentration of 50 ng/kg was injected locally following injury (day 0) and 24 hours later.

PBMCs [1] = experiment: TNF-α production by PBMCs (ELISA, 14 hours); type: cell-based, human; conditions: PBMCs 1*10^5/ml, 10% FCS, alarmin at indicated doses
Description: FIG. 10. […] (A) PBMCs at 1*10^5/ml were incubated in 10% fetal calf serum (FCS) with S100 A8 at indicated doses. […] (B) PBMCs at 1*10^5/ml were incubated in 10% FCS with S100 A8 at 0.5 μg/ml with the addition of either antibody to TLR4, TLR2 or isotype controls (not shown), or sRAGE over 14 hours. TNF-α levels were determined by ELISA.
FIG. 12. […] PBMCs at 1*10^5/ml were incubated in 10% FCS with S100 A8, S100 A9 or S100 A12 at the indicated doses over 14 hours. TNF-α levels were determined by ELISA.
FIG. 17. […] PBMCs at 1*10^5/ml were incubated in 10% FCS with HMGB1 or LPS at the indicated doses over 14 hours; TNF-α levels were determined by ELISA.

PBMCs [2] = experiment: IL-6 and IL-1β production by PBMCs stimulated with S100 A8 (ELISA); type: cell-based, human; conditions: S100 A8 0.5 μg/ml with antibody to TLR4, TLR2 or sRAGE, 14 hours
Description: FIG. 13. […] PBMCs at 1*10^5/ml were incubated in 10% FCS with S100 A8 0.5 μg/ml with the addition of either antibody to TLR4, TLR2 or isotype controls, or sRAGE over 14 hours. IL-6 (A) and […] (B) levels were determined by ELISA.

[3] = tested on: muscle derived stromal cells (MDSCs); experiment: osteogenic activity of supernatant from stimulated PBMCs: alkaline phosphatase in MDSCs over 7 d; type: cell-based, human; conditions: S100 A8 at indicated doses (μg/ml) or LPS 10 ng/ml; MDSCs 7 d
Description: FIG. 15. Supernatant from PBMCs stimulated with S100A8 but not LPS is osteogenic. PBMCs at 1*10^5/ml were stimulated with S100 A8 at indicated doses (μg/ml), or LPS at 10 ng/ml. The supernatants were harvested and filter-sterilised through a 0.2 μm filter. MDSCs were cultured in this S100 A8-stimulated supernatant over 7 d and alkaline phosphatase levels quantified.
FIG. 16. Osteogenic activity of supernatant from human monocytes exposed to varying doses of LPS.

B1: S100A8: alarmin; rhS100A8 added to human PBMCs (protein, UniProt P05109 1-93, looked up)
Protein S100-A8: MLTELEKALNSIIDVYHKYSLIKGNFHAVYRDDLKKLLETECPQYIRKKGADVWFKELDINTDGAVNFQEFLILVIKMGVAAHKKSHEESHKE
fracture healing / percentage callus mineralization (tibial fracture): no effect | TNF-α production by PBMCs (PBMCs [1]; listed as S100 A8): stimulates monocytes to produce TNF-α in a dose dependent manner; also recorded: dose-dependent increase in TNF-α production | TNF-α production by PBMCs (PBMCs [1]; listed as rhS100A8): resulted in production of TNF-α | receptor dependence of IL-6 and IL-1β production (PBMCs [2]): produced by monocytes via TLR4 and also RAGE, but not TLR2 | osteogenic activity of stimulated PBMC supernatant (alkaline phosphatase) [3]: led to osteogenesis; also recorded: osteogenic
